Reference: US20030148447A1 (ZymoGenetics, published 2003)

Columns and labels:
[1] = molecular target: factor present in the activated monkey spleen conditioned media; experiment: cell-based or functional assay
[2] = molecular target: factor present in the activated CD3+ selected human T-cell conditioned media; experiment: cell-based or functional assay

| Binder | inhibition of conditioned-medium-driven BaF3/Zalpha11 cell growth; soluble receptor concentration giving complete inhibition [1] | titration of soluble receptor; lowest concentration completely inhibiting BaF3/Zalpha11 growth [1] | inhibition of conditioned-medium-driven BaF3/Zalpha11 cell growth; soluble receptor concentration giving complete inhibition [2] | titration of soluble receptor; lowest concentration completely inhibiting BaF3/Zalpha11 growth [2] |
| --- | --- | --- | --- | --- |
| zalpha11CFLG soluble receptor (zalpha11 extracellular domain with C-terminal FLAG tag) (receptor, first Trp of the WSXWS motif C-mannosylated in ~35% of molecules (BHK)) not shown | 10 µg/mL | 20 ng/mL | 10 µg/mL | 20 ng/mL |
| zalpha11CEE soluble receptor (zalpha11 extracellular domain with C-terminal Glu-Glu tag) (receptor, first Trp of the WSXWS motif C-mannosylated in ~46% of molecules (BHK)) not shown | 10 µg/mL | 20 ng/mL | 10 µg/mL | 20 ng/mL |
